Test results taken from US20160237160A1 (Bayer, published 2016).
Substitutions are numbered along the chain they refer to. Numbers in names are those of the source.

B1: TPP-2084 (antibody, human IgG1, kappa, V domains shown)
VH: EVQLLESGGGLVQPGGSLRLSCAASGFTFSPYPMMWVRQAPGKGLEWVSYISPSGGSTHYADSVKGRFTISRDNSKNTLYLQMNSLRAEDTAVYYCARGGDTYFDYFDYWGQGTLVTVSS
VL: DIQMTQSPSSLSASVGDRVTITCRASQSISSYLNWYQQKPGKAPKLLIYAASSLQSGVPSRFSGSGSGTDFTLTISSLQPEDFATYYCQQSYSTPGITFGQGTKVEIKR
notes: Human IgG1
B2: TPP-2077 (antibody, human IgG1, kappa)
heavy: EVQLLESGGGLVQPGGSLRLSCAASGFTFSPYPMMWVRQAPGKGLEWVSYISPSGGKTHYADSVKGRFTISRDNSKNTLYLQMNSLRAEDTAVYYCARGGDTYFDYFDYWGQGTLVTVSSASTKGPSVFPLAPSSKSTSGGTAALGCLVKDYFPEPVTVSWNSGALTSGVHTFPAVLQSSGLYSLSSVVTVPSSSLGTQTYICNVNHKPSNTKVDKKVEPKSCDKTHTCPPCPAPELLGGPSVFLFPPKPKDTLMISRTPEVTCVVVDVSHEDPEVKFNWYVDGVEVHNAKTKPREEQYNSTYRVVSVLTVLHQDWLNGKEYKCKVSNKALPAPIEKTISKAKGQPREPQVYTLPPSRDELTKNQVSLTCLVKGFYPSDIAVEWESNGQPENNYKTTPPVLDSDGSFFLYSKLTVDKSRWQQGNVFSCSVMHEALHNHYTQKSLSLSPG
light: DIQMTQSPATLSASVGDRVTITCRASQSISSYLNWYQQKPGKAPKLLIYAASSLQSGVPSRFSGSGSGTDFTLTISSLQPEDFATYYCQQSYSSPGITFGPGTKVEIKRTVAAPSVFIFPPSDEQLKSGTASVVCLLNNFYPREAKVQWKVDNALQSGNSQESVTEQDSKDSTYSLSSTLTLSKADYEKHKLYACEVTHQGLSSPVTKSFNRGEC
notes: Human IgG1
B3: 136.1(TPP-2194) (antibody, mouse IgG2a, kappa, V domains shown)
VH: EVKLEESGGGLVQPGGSMKLSCVASGFTFNNYWMSWVRQSPEKGLEWLAEIRLKSDNYATHYAESVKGKFTISRDDSKSRLYLQMNNLRAENTGIYYCTGGFADYFDYWGQGTTLTVSS
VL: DIVLTQSPASLTVSLGQRATISCRASQSVSTSSYSYMQWYQQRPGQPPKLLIKYATNLDSGVPARFSGSGSGTDFTLNIHPVEEEDAATYYCQHSWEIPYTFGGGTKLEIKR
notes: Murine IgG2a; variable domains from WO2009/020933 with constant region added
B4: TPP-1538 (antibody, human IgG1, kappa)
heavy: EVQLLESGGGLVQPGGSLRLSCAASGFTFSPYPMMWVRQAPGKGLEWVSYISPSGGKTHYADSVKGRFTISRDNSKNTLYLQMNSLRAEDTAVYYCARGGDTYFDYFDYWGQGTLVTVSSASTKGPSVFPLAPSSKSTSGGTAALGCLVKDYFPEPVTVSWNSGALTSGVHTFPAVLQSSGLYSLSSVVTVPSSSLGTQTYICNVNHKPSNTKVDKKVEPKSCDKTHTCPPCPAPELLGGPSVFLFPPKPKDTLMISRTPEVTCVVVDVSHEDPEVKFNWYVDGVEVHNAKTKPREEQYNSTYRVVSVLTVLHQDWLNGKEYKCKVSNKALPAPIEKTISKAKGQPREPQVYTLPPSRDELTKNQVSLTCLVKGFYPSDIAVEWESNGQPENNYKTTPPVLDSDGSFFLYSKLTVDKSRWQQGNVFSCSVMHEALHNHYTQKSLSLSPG
light: AQDIQMTQSPATLSASVGDRVTITCRASQSISSYLNWYQQKPGKAPKLLIYAASSLQSGVPSRFSGSGSGTDFTLTISSLQPEDFATYYCQQSYSSPGITFGPGTKVEIKRTVAAPSVFIFPPSDEQLKSGTASVVCLLNNFYPREAKVQWKVDNALQSGNSQESVTEQDSKDSTYSLSSTLTLSKADYEKHKLYACEVTHQGLSSPVTKSFNRGEC
notes: Human IgG1
B5: TPP-883 Fab variant A51Q of CDR-L2 (Fab, V domains shown)
VH: B1 VH with S57K, T102G
VL: DIQMTQSPATLSASVGDRVTITCRASQSISSYLNWYQQKPGKAPKLLIYQASSLQSGVPSRFSGSGSGTDFTLTISSLQPEDFATYYCQQSYSSPGITFGPGTKVEIK

Assays:
[1] = biological target: T1, TWEAKR (TNFRSF12A, FN14), human, on tumor cell lines (human, UniProt Q9NP84 28-129); assay: cell-based or functional assay
[2] = biological target: T2, TPP-2305 (hTNFRSF12Aaa28-80) (Human, UniProt Q9NP84 28-80); assay: SPR (Biacore T100), IgG captured, TPP-2305 injected, 1:1 model
T2 construct: monomeric extracellular domain, bought; also called purified recombinant human TWEAKR protein; soluble monomeric TWEAKR
Method: Binding affinities of anti-TWEAKR antibodies were determined by surface plasmon resonance analysis on a Biacore T100 instrument (GE Healthcare Biacore, Inc.). Antibodies were immobilized onto a CM5 sensor chip through an indirect capturing reagent, anti-human IgG(Fc). […] Anti-TWEAKR antibodies were injected at a concentration of 10 μg/ml at 10 μl/min for 10 sec.
Sensorgrams were generated after in-line reference cell correction followed by buffer sample subtraction. The dissociation equilibrium constant (KD) was calculated based on the ratio of association (kₒₙ) and dissociation rated (koff) constants, obtained by fitting sensorgrams with a first order 1:1 binding model.

[3] = biological target: T1, TWEAKR (TNFRSF12A, FN14), human, on …; assay: FACS, A375 cells, 10 ug/ml
Method: (§1) To determine the binding characteristics of the anti-TWEAKR antibodies on mouse and human cancer cell lines, binding was tested by flow cytometry to a panel of cell lines. […] Cells were suspended at approximately 10⁵ cells/well in FACS buffer (PBS without Ca/Mg, containing 3% FCS, Biochrom). Cells were centrifuged (250 g, 5 min, 4° C.) and supernatant discarded. Cells were resuspended in dilutions of the antibodies of interest (10 μg/ml in 80 μl if not indicated otherwise) in FACS buffer, and incubated on ice for 1 h. […] After incubation for 1 h on ice cells were again washed with cold FACS buffer, resuspended in 1000 FACS buffer and analyzed by flow cytometry using a FACS-Array (BD Biosciences). Results are calculated as Geo Mean of fluorescence detected by the antibody of interest subtracted by background fluorescence as measured by detection with the secondary antibody alone. Values are scored according to the following system: Geo Mean−Geo Mean of secondary antibody alone >10: +, >100: ++, >1000: +++, 10000: ++++, close to category border in ( ).

[4] = biological target: TPP-1986 (hTNFRSF12Aaa28-80-T33Q-hIgG1-Fc) (human); assay: ELISA, TWEAKR-Fc coated 62 ng/ml, biotin-IgG titrated; + means IC50 1 to 150 pM;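 also: biotinylated IgG binding to immobilized TWEAKR-Fc muteins, detected with Streptavidin-HRP and Amplex Red, IC50 derived from fitted dose-response curves of twofold serial dilutions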
Method: (§2) To collect dose-response data, the different TWEAKR-Fc muteins were coated with a low concentration (62 ng/ml) in a 384-well Maxisorb ELISA plate and a serial 2fold dilution of biotinylated IgG starting with a concentration of 100 nM was used as soluble binding partner. Detection was done with Streptavidin-HRP and Amplex Red.
(§3) The dose-response data were fitted and IC50s determined.

[5] = biological target: TPP-1988 (hTNFRSF12Aaa28-80-M50A-hIgG1-Fc) (human); assay: as above
Method: as §2, §3

[6] = biological target: TPP-1987 (hTNFRSF12Aaa28-80-S40R-hIgG1-Fc) (human); assay: as above
Method: as §2, §3

[7] = biological target: TPP-1989 (hTNFRSF12Aaa28-80-H60K-hIgG1-Fc) (human); assay: as above
Method: as §2, §3

[8] = biological target: TPP-2683 (hTNFRSF12Aaa28-80-R56P-hIgG1-Fc) (human); assay: as above
Method: as §2, §3

[9] = biological target: TPP-1990 (hTNFRSF12Aaa28-80-L65Q-hIgG1-Fc) (human); assay: as above
Method: as §2, §3

[10] = biological target: T3, TPP-1846 (MAC-TNFRSF12Aaa28-80-hIgG1-Fc) (macaca fascicularis); assay: SPR, TWEAKR-Fc immobilized, IgG injected, bivalent analyte model (avidity mode);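 also: kd derived as the ratio of fitted dissociation to association rate constants, with sensorgrams corrected against a reference flow cell and a buffer blank before fitting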
T3 construct: bivalent antigen; also called mac fasc TWEAKR Fc
Method: (§4) Sensorgrams were generated after in-line reference cell correction followed by buffer sample subtraction. The dissociation equilibrium constant (KD) was calculated based on the ratio of association (kₒₙ₁) and dissociation rated (koff1) constants, obtained by fitting sensorgrams with a bivalent analyte model using Biavaluation Software (version 4.0).

[11] = biological target: T4, TPP-1779 (RAT-TNFRSF12Aaa28-80-hIgG1-Fc) (rat); assay: as above
T4 construct: bivalent antigen; also called rat TWEAKR Fc
Method: as §4

[12] = biological target: T5, TPP-599 (HUMAN-TNFRSF12Aaa28-80-hIgG1-Fc) (human); assay: as above
T5 construct: dimeric; also called human TWEAKR Fc; TWEAKR-Fc
Method: as §4

[13] = biological target: T6, TPP-1778 (PIG-TNFRSF12Aaa28-80-hIgG1-Fc) (pig); assay: as above
T6 construct: bivalent antigen; also called pig TWEAKR Fc
Method: as §4

[14] = biological target: T7, TPP-601 (MURINE-TNFRSF12Aaa28-80-hIgG1-Fc) (murine); assay: as above
T7 construct: dimeric; also called murine TWEAKR Fc
Method: as §4

[15] = biological target: T8, TPP-1777 (DOG-TNFRSF12Aaa28-80-hIgG1-Fc) (dog); assay: as above
T8 construct: bivalent antigen; also called dog TWEAKR Fc
Method: as §4

[16] = biological target: T1, TWEAKR (TNFRSF12A, FN14), human, on …; assay: FACS, WiDr cells, 10 ug/ml
Method: as §1

[17] = biological target: T1, TWEAKR (TNFRSF12A, FN14), human, on …; assay: FACS, NCI-H322 cells, 10 ug/ml
Method: as §1

[18] = biological target: T9, TPP-1984 (hTNFRSF12Aaa28-68-CT-His) (human); assay: ELISA, TPP-1984 coated at 1 µg/ml, biotinylated IgG at 0.08 µg/ml (open bar) and 0.3 µg/ml (filled bar), Streptavidin-HRP, Amplex Red
T9 construct: monomeric ectodomain with HIS6 tag; also called TWEAKR(28-68)-HIS; C-terminally truncated TWEAKR ectodomain
T9 chain: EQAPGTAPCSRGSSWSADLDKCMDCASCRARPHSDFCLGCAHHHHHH
Method: (§5) Detection was done with Streptavidin-HRP and Amplex-Red substrate.
(§6) To analyze for binding, 1 μg/ml of the respective dimeric TWEAKR-Fc construct were coated and, 0.3 μg/ml and 0.08 μg/ml of biotinylated IgG were used as soluble binding partner. Detection was done with Streptavidin-HRP and Amplex-Red substrate.

[19] = biological target: T1, TWEAKR (TNFRSF12A, FN14), human, on …; assay: cell-based or functional assay; remark: listed apart in the source
[20] = biological target: T10, TPP-2203 (TWEAKR-ECD-34-68-hIgGFc-His) (human); assay: ELISA, TPP-2203 coated at 1 µg/ml, biotinylated IgG at 0.08 µg/ml (open bar) and 0.3 µg/ml (filled bar), Streptavidin-HRP, Amplex Red
T10 construct: dimeric; also called TWEAKR(34-68)-Fc fusion protein; truncated ectodomain 34-68
Method: as §5, §6

[21] = biological target: T1, TWEAKR (TNFRSF12A, FN14), human, on …; assay: FACS, HT29 cells, 10 ug/ml
Method: as §1

[22] = biological target: T1, TWEAKR (TNFRSF12A, FN14), human, on …; assay: cell-based or functional assay; remark: listed apart in the source
[23] = biological target: T1, TWEAKR (TNFRSF12A, FN14), human, on …; assay: FACS, 786-O cells, 10 ug/ml
Method: as §1

[24] = biological target: T1, TWEAKR (TNFRSF12A, FN14), human, on …; assay: FACS, SKOV-3 cells, 10 ug/ml
Method: as §1

[25] = biological target: T11, TPP-2202 (TWEAKR-ECD-28-80-hIgGFc-His) (human); assay: ELISA, TPP-2202 coated at 1 µg/ml, biotinylated IgG at 0.08 µg/ml (open bar) and 0.3 µg/ml (filled bar), Streptavidin-HRP, Amplex Red
T11 construct: dimeric; also called TWEAKR-Fc fusion protein; full ectodomain 28-80
Method: as §5, §6

[26] = biological target: T12, TPP-2614 (TweakR-ECD-34-68-hIgGFc-His-D47A) (human); assay: ELISA, IgG coated 1 ug/ml, TWEAKR variant 250 ng/ml, anti-HIS HRP (FIG. 6C)
T12 construct: also called D47A TWEAKR mutein
Method: Antibodies were coated (1 μg/ml), TWEAKR variant was added at 250 ng/ml, detection via anti-HIS HRP. […] Antibodies were coated (1 μg/ml), TWEAKR variant was added 250 ng/ml, detection via anti-HIS HRP.

[27] = biological target: T5, TPP-599 …; assay: ELISA, TWEAKR-Fc coated 62 ng/ml, biotin-IgG titrated; + means IC50 1 to 150 pM;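 also: biotinylated IgG binding to immobilized TWEAKR-Fc muteins, detected with Streptavidin-HRP and Amplex Red, IC50 derived from fitted dose-response curves of twofold serial dilutions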
Method: as §2, §3

[28] = biological target: T5, TPP-599 …; assay: ELISA, 2.5 nM biotinylated TWEAKR-Fc coated, soluble Fab, anti-c-Myc detection

Row | Binder | Fold induction of Caspase 3/7, 786-O cells, 100 ug/ml [1] [fold] | Fold induction of Caspase 3/7, HT-29 cells, 100 ug/ml [1] [fold] | Fold induction of Caspase 3/7, NCI-H322 cells, 100 ug/ml [1] [fold] | Kd [2] [nM] | koff [2] [s⁻¹] | kon [2] [M⁻¹ s⁻¹] | GeoMean of Fluorescence minus GeoMean with the secondary antibody only [3] | binding result [4] | binding result [5] | binding result [6] | binding result [7] | binding result [9] | Kd [10] [nM] | Kd [11] [nM] | Kd [12] [nM] | Kd [13] [nM] | Kd [14] [nM] | Kd [15] [nM] | IL-8 release from A375 cells at 100 ug/ml, % of the activation by 300 ng/ml TWEAK ligand [22] [%] | % binding normalized by wt binding signal [26] [%] | other results
1 | B1 | 1.61 | 2.59 | 1.58 | 27.6 | 0.11 | 4.2e+06 | 199 | binds | binds | binds | binds | binds | 23.8 | 21.1 | 16.2 | 34.2 | 4 | 17 | 113 | < 5 | Fold induction of Caspase 3/7, A253 cells, 100 ug/ml [1]: 1.6 fold; binding result [8]: binds; GeoMean of Fluorescence minus GeoMean with the secondary antibody only [16]: 1350; GeoMean of Fluorescence minus GeoMean with the secondary antibody only [17]: 126; binding result [18]: binds; % Inhibition of proliferation, 786-O cells, 96h, 100 ug/ml [19]: 68%; % Inhibition of proliferation, A253 cells, 72h, 100 ug/ml [19]: > 100%; % Inhibition of proliferation, HT-29 cells, 24h, 100 ug/ml [19]: 98%; % Inhibition of proliferation, WiDr cells, 96h, 100 ug/ml [19]: 52%; binding result [20]: binds; GeoMean of Fluorescence minus GeoMean with the secondary antibody only [21]: 750; GeoMean of Fluorescence minus GeoMean with the secondary antibody only [23]: 16300; GeoMean of Fluorescence minus GeoMean with the secondary antibody only [24]: 1660; binding result [25]: binds
2 | B2 | – | – | – | 28.9 | 0.086 | 3e+06 | – | – | – | – | – | – | 16.8 | 21.2 | 10.3 | 22.4 | 4.2 | 24.5 | – | < 5 | –
3 | B3 | – | 1.81 | – | 0.8 | 0.0324 | 3.84e+07 | – | binds | binds | binds | binds | binds | – | – | – | – | – | – | 93 | – | binding result [27]: binds; binding result [18]: binds; binding result [20]: binds; binding result [25]: binds
4 | B4 | 1.81 | 2.44 | 1.49 | 27.6 | 0.11 | 4.2e+06 | 229 | – | – | – | – | – | 21.1 | 20.4 | 15.4 | 22.7 | 4.7 | 25 | 134 | < 5 | Fold induction of Caspase 3/7, WiDr cells, 100 ug/ml [1]: 1.53 fold; GeoMean of Fluorescence minus GeoMean with the secondary antibody only [16]: 1190; GeoMean of Fluorescence minus GeoMean with the secondary antibody only [17]: 98; % Inhibition of proliferation, 786-O cells, 96h, 100 ug/ml [19]: 75%; % Inhibition of proliferation, A253 cells, 72h, 100 ug/ml [19]: > 100%; % Inhibition of proliferation, HT-29 cells, 24h, 100 ug/ml [19]: 97%; % Inhibition of proliferation, WiDr cells, 96h, 100 ug/ml [19]: 55%; GeoMean of Fluorescence minus GeoMean with the secondary antibody only [21]: 634; GeoMean of Fluorescence minus GeoMean with the secondary antibody only [23]: 17500; GeoMean of Fluorescence minus GeoMean with the secondary antibody only [24]: 1630
5 | B5 | – | – | – | – | – | – | – | – | – | – | – | – | – | – | – | – | – | – | – | – | binding result [28]: binds
